Measured values: the supplement of paper PMC10201428
± gives the standard deviation of the averaged measurements.

Legend:
[1] = test system: VchCAST RNA-guided transposition machinery (E. coli BL21(DE3) host, lacZ target); assay: relative integration efficiency (T-LR orientation) vs wild-type transposon end (log2 (normalized fold change)); transposon end mutated: left end; higher = more efficient transposition
How it was run: (§1)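 Pools of 1549 left-end or 1849 right-end barcoded transposon variants were cloned into a pUC57 mini-transposon donor and co-transformed into E. coli BL21(DE3) with a T7-driven effector plasmid carrying a CRISPR array, tniQ-cas8-cas7-cas6 and tnsA-tnsB-tnsC. Plating used 0.1 mM IPTG at 37°C for 18 h, and input plasmids and genomic integration junctions were PCR-amplified for Illumina sequencing, with two biological output replicates and four reference barcodes. Relative integration efficiency is the log-transformed fold change of output over input barcode abundance, normalised to the reference barcodes.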

[2] = test system: VchCAST RNA-guided transposition machinery (E. coli BL21(DE3) host, lacZ target); assay: relative integration efficiency (T-RL orientation) vs wild-type transposon end (log2 (normalized fold change)); transposon end mutated: left end; higher = more efficient transposition
How it was run: as §1

Sequence	relative integration efficiency (log2) [1]	relative integration efficiency (log2) [2]
AATGTTGTTGATGCAACCATAAAGTGATATTTAATAATTATTTATAATCAGCAACTTAACCACAAAACAACCATATATTGATATCGACACCCCACCAACGCCTGGTCGCGGGGGTGTCCGATCTGATTTCAGCAAAACTACTGCAGTAAGAA	-1.19 ± 2	-2.44 ± 0.91
AATGTTGTTGATGCAACCATAAAGTGATATTTAATAATTATTTATAATCAGCAACTTAACCACAAAACAACCATATATTGATATCTACAAAACAACCATAAGTTGATATTTTTGTGAATCGAGTATTTCAGCAAAACTACTGCAGTAAGAAA	-0.176 ± 0.54	-1.23 ± 0.67
AATGTTGTTGATGCAACCATAAAGTGATATTTAATAATTATTTATAATCAGCAACTTAACCACAAAACAACCATATATTGATATCTACACCCCACCAACGCCTGGTCGCGGGGGTGTCCGATCTGATTTCAGCAAAACTACTGCAGTAAGAA	-1.16 ± 1.5	-2.46 ± 1
AATGTTGTTGATGCAACCATAAAGTGATATTTAATAATTATTTATAATCAGCAACTTAACCACAAAACAACCATATATTGATATCTCAACCCCACCAACGCCTGGTCGCGGGGGTGTCCGATCTGATTTCAGCAAAACTACTGCAGTAAGAA	-0.776 ± 1.1	-2.58 ± 0.89
AATGTTGTTGATGCAACCATAAAGTGATATTTAATAATTATTTATAATCAGCAACTTAACCACAAAACAACCATATATTGATATCTCACAAAAACCAACGCCCTGTCGCGGGCTGTGAATCGAGTATTTCAGCAAAACTACTGCAGTAAGAA	-1.71 ± 0.47	-2.5 ± 0.88
AATGTTGTTGATGCAACCATAAAGTGATATTTAATAATTATTTATAATCAGCAACTTAACCACAAAACAACCATATATTGATATCTCACAAAAACCAACGCCTGGTCGCGGGGGTGTCCGATCTGATTTCAGCAAAACTACTGCAGTAAGAA	-0.363 ± 1.2	-2.38 ± 1.1
AATGTTGTTGATGCAACCATAAAGTGATATTTAATAATTATTTATAATCAGCAACTTAACCACAAAACAACCATATATTGATATCTCACAAAACAAAACGCCTGGTCGCGGGGGTGTCCGATCTGATTTCAGCAAAACTACTGCAGTAAGAA	-0.638 ± 1.1	-2.27 ± 1
AATGTTGTTGATGCAACCATAAAGTGATATTTAATAATTATTTATAATCAGCAACTTAACCACAAAACAACCATATATTGATATCTCACAAAACAACACGCCTGGTCGCGGGGGTGTCCGATCTGATTTCAGCAAAACTACTGCAGTAAGAA	-0.741 ± 1.6	-2.49 ± 0.9
AATGTTGTTGATGCAACCATAAAGTGATATTTAATAATTATTTATAATCAGCAACTTAACCACAAAACAACCATATATTGATATCTCACAAAACAACCAGCCTGGTCGCGGGGGTGTCCGATCTGATTTCAGCAAAACTACTGCAGTAAGAA	-0.68 ± 0.94	-2.22 ± 0.9
AATGTTGTTGATGCAACCATAAAGTGATATTTAATAATTATTTATAATCAGCAACTTAACCACAAAACAACCATATATTGATATCTCACAAAACAACCATAAGGGTCGCGGGGGTGTCCGATCTGATTTCAGCAAAACTACTGCAGTAAGAA	-1.56 ± 1	-1.87 ± 0.93
AATGTTGTTGATGCAACCATAAAGTGATATTTAATAATTATTTATAATCAGCAACTTAACCACAAAACAACCATATATTGATATCTCACAAAACAACCATAAGTGTCGCGGGGGTGTCCGATCTGATTTCAGCAAAACTACTGCAGTAAGAA	-1.82 ± 0.77	-2.05 ± 0.76
AATGTTGTTGATGCAACCATAAAGTGATATTTAATAATTATTTATAATCAGCAACTTAACCACAAAACAACCATATATTGATATCTCACAAAACAACCATAAGTTGAGCGGGGGTGTCCGATCTGATTTCAGCAAAACTACTGCAGTAAGAA	-1.81 ± 0.51	-1.32 ± 0.58
AATGTTGTTGATGCAACCATAAAGTGATATTTAATAATTATTTATAATCAGCAACTTAACCACAAAACAACCATATATTGATATCTCACAAAACAACCATAAGTTGATAGGGGGTGTCCGATCTGATTTCAGCAAAACTACTGCAGTAAGAA	-0.256 ± 0.057	-0.795 ± 0.62
AATGTTGTTGATGCAACCATAAAGTGATATTTAATAATTATTTATAATCAGCAACTTAACCACAAAACAACCATATATTGATATCTCACAAAACAACCATAAGTTGATATGGGGTGTCCGATCTGATTTCAGCAAAACTACTGCAGTAAGAA	-0.611 ± 0.81	-0.33 ± 0.14
AATGTTGTTGATGCAACCATAAAGTGATATTTAATAATTATTTATAATCAGCAACTTAACCACAAAACAACCATATATTGATATCTCACAAAACAACCATAAGTTGATATGTGAATCGAGTATTTCAGCAAAACTACTGCAGTAAGAAAGTT	-0.00636 ± 0.11	-0.276 ± 0.26
AATGTTGTTGATGCAACCATAAAGTGATATTTAATAATTATTTATAATCAGCAACTTAACCACAAAACAACCATATATTGATATCTCACAAAACAACCATAAGTTGATATTGGGTGTCCGATCTGATTTCAGCAAAACTACTGCAGTAAGAA	-0.651 ± 0.46	-0.13 ± 0.053
AATGTTGTTGATGCAACCATAAAGTGATATTTAATAATTATTTATAATCAGCAACTTAACCACAAAACAACCATATATTGATATCTCACAAAACAACCATAAGTTGATATTGTGAATCGAGTATTTCAGCAAAACTACTGCAGTAAGAAAGT	-0.0935 ± 0.19	-0.306 ± 0.15
AATGTTGTTGATGCAACCATAAAGTGATATTTAATAATTATTTATAATCAGCAACTTAACCACAAAACAACCATATATTGATATCTCACAAAACAACCATAAGTTGATATTTGTGAATCGAGTATTTCAGCAAAACTACTGCAGTAAGAAAG	0.0663 ± 0.15	-0.116 ± 0.072
AATGTTGTTGATGCAACCATAAAGTGATATTTAATAATTATTTATAATCAGCAACTTAACCACAAAACAACCATATATTGATATCTCACAAAACAACCATAAGTTGATATTTTGTGAATCGAGTATTTCAGCAAAACTACTGCAGTAAGAAA	0.169 ± 0.12	0.0855 ± 0.0046
AATGTTGTTGATGCAACCATAAAGTGATATTTAATAATTATTTATAATCAGCAACTTAACCACAAAACAACCATATATTGATATCTCACAAAACAACCATAAGTTGATCGGGGGTGTCCGATCTGATTTCAGCAAAACTACTGCAGTAAGAA	-1.32 ± 0.59	-1.03 ± 0.49
AATGTTGTTGATGCAACCATAAAGTGATATTTAATAATTATTTATAATCAGCAACTTAACCACAAAACAACCATATATTGATATCTCACAAAACAACCATAAGTTGATTGTGAATCGAGTATTTCAGCAAAACTACTGCAGTAAGAAAGTTA	-0.858 ± 0.1	-0.574 ± 0.38
AATGTTGTTGATGCAACCATAAAGTGATATTTAATAATTATTTATAATCAGCAACTTAACCACAAAACAACCATATATTGATATCTCACAAAACAACCATAAGTTGCGCGGGGGTGTCCGATCTGATTTCAGCAAAACTACTGCAGTAAGAA	-3.15 ± 1.6	-1.74 ± 0.81
AATGTTGTTGATGCAACCATAAAGTGATATTTAATAATTATTTATAATCAGCAACTTAACCACAAAACAACCATATATTGATATCTCACAAAACAACCATAAGTTTCGCGGGGGTGTCCGATCTGATTTCAGCAAAACTACTGCAGTAAGAA	-2.11 ± 1.5	-2.22 ± 0.95
AATGTTGTTGATGCAACCATAAAGTGATATTTAATAATTATTTATAATCAGCAACTTAACCACAAAACAACCATATATTGATATCTCACAAAACAACCATAATGGTCGCGGGGGTGTCCGATCTGATTTCAGCAAAACTACTGCAGTAAGAA	-1.31 ± 0.87	-1.93 ± 0.81
